Test results taken from patent publication US12060424 (AMUNIX PHARMACEUTICALS, dated 2024).

How the values were obtained:
[1] = biological target: T1, human EpCAM expressed on cells (CHO cells stably transfected with human EpCAM); EpCAM-positive human tumor … (human, UniProt P16422 24-314); experiment: cell-based or functional assay
T1 sequence (looked up): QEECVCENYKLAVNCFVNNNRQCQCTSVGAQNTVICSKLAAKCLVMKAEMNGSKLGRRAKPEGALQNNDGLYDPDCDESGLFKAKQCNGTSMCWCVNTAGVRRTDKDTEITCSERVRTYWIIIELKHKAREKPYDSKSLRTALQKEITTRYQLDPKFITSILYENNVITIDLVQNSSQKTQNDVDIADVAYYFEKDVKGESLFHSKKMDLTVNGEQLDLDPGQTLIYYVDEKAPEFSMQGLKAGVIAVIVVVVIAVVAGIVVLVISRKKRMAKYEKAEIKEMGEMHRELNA

[2] = biological target: recombinant human CD3 epsilon & delta (rhCD3ε & δ), Creative BioMart cat #CD3E&CD3D-219H (human) (UniProt P07766); experiment: sandwich ELISA: rhCD3ε & δ coated, biotinylated anti-XTEN antibody detection
Chain of recombinant human CD3 epsilon & delta (rhCD3ε & δ), Creative BioMart cat #CD3E&CD3D-219H (human) (P07766 23-126, stated change not applied, chain 1 of 2): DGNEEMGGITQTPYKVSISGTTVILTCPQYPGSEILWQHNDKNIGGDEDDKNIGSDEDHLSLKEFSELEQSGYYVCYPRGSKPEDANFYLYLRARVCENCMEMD
Chain of recombinant human CD3 epsilon & delta (rhCD3ε & δ), Creative BioMart cat #CD3E&CD3D-219H (human) (P04234 22-105, stated change not applied, chain 2 of 2, further chain): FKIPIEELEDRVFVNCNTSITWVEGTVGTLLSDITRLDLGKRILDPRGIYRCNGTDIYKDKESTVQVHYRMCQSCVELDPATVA

| Binder | EC50 [2] [µg/mL] | EC50 (pM), caspase 3/7 cytotoxicity, PBMC with HCT-116 cells 10:1 [1] [pM] | EC50 (pM), caspase 3/7 cytotoxicity, PBMC with HPAF-II cells 10:1 [1] [pM] | EC50 (pM), caspase 3/7 cytotoxicity, PBMC with MDA-MB-231 cells 10:1 [1] [pM] |
| --- | --- | --- | --- | --- |
| AC1686 protease-untreated anti-EpCAM×anti-CD3 ProTIA (bispecific antibody) DIQMTQSPSSLSASVGDRVTITCRSTKSLLHSNGITYLYWYQQKPGKAPKLLIYQMSNLASGVPSRFSSSGSGTDFTLTISSLQPEDFATYYCAQNLEIPRTFGQGTKVEIKGATPPETGAETESPGETTGGSAESEPPGEGQVQLVQSGPGLVQPGGSVRISCAASGYTFTNYGMNWVKQAPGKGLEWMGWINTYTGESTYADSFKGRFTFSLDTSASAAYLQINSLRAEDTAVYYCARFAIKGDYWGQGTLLTVSSGGGGSDIQMTQSPSSLSASVGDRVTITCRASQDIRNYLNWYQQKPGKAPKLLIYYTSRLESGVPSRFSGSGSGTDYTLTISSLQPEDFATYYCQQGNTLPWTFGQGTKVEIKGATPPETGAETESPGETTGGSAESEPPGEGEVQLVESGGGLVQPGGSLRLSCAASGYSFTGYTMNWVRQAPGKGLEWVALINPYKGVSTYNQKFKDRFTISVDKSKNTAYLQMNSLRAEDTAVYYCARSGYYGDSDWYFDVWGQGTLVTVSSGTAEAASASGEPGRAANHEPSGLTEGPGSPAGSPTSTEEGTSESATPESGPGTSTEPSEGSAPGSPAGSPTSTEEGTSTEPSEGSAPGTSTEPSEGSAPGTSESATPESGPGSEPATSGSETPGSEPATSGSETPGSPAGSPTSTEEGTSESATPESGPGTSTEPSEGSAPGTSTEPSEGSAPGSPAGSPTSTEEGTSTEPSEGSAPGTSTEPSEGSAPGTSESATPESGPGTSTEPSEGSAPGTSESATPESGPGSEPATSGSETPGTSTEPSEGSAPGTSTEPSEGSAPGTSESATPESGPGTSESATPESGPGSPAGSPTSTEEGTSESATPESGPGSEPATSGSETPGTSESATPESGPGTSTEPSEGSAPGTSTEPSEGSAPGTSTEPSEGSAPGTSTEPSEGSAPGTSTEPSEGSAPGTSTEPSEGSAPGSPAGSPTSTEEGTSTEPSEGSAPGTSESATPESGPGSEPATSGSETPGTSESATPESGPGSEPATSGSETPGTSESATPESGPGTSTEPSEGSAPGTSESATPESGPGSPAGSPTSTEEGSPAGSPTSTEEGSPAGSPTSTEEGTSESATPESGPGTSTEPSEGSAPGTSESATPESGPGSEPATSGSETPGTSESATPESGPGSEPATSGSETPGTSESATPESGPGTSTEPSEGSAPGSPAGSPTSTEEGTSESATPESGPGSEPATSGSETPGTSESATPESGPGSPAGSPTSTEEGSPAGSPTSTEEGTSTEPSEGSAPGTSESATPESGPGTSESATPESGPGTSESATPESGPGSEPATSGSETPGSEPATSGSETPGSPAGSPTSTEEGTSTEPSEGSAPGTSTEPSEGSAPGSEPATSGSETPGTSESATPESGPGTSTEPSEGSAPGHHHHHH | 0.026 | 240 | 118 | 2680 |
| AC1685 protease-untreated anti-EpCAM×anti-CD3 ProTIA (bispecific antibody) DIQMTQSPSSLSASVGDRVTITCRSTKSLLHSNGITYLYWYQQKPGKAPKLLIYQMSNLASGVPSRFSSSGSGTDFTLTISSLQPEDFATYYCAQNLEIPRTFGQGTKVEIKGATPPETGAETESPGETTGGSAESEPPGEGQVQLVQSGPGLVQPGGSVRISCAASGYTFTNYGMNWVKQAPGKGLEWMGWINTYTGESTYADSFKGRFTFSLDTSASAAYLQINSLRAEDTAVYYCARFAIKGDYWGQGTLLTVSSGGGGSDIQMTQSPSSLSASVGDRVTITCRASQDIRNYLNWYQQKPGKAPKLLIYYTSRLESGVPSRFSGSGSGTDYTLTISSLQPEDFATYYCQQGNTLPWTFGQGTKVEIKGATPPETGAETESPGETTGGSAESEPPGEGEVQLVESGGGLVQPGGSLRLSCAASGYSFTGYTMNWVRQAPGKGLEWVALINPYKGVSTYNQKFKDRFTISVDKSKNTAYLQMNSLRAEDTAVYYCARSGYYGDSDWYFDVWGQGTLVTVSSGTAEAASASGESGRAANTAPEGLTGPPGSPAGSPTSTEEGTSESATPESGPGTSTEPSEGSAPGSPAGSPTSTEEGTSTEPSEGSAPGTSTEPSEGSAPGTSESATPESGPGSEPATSGSETPGSEPATSGSETPGSPAGSPTSTEEGTSESATPESGPGTSTEPSEGSAPGTSTEPSEGSAPGSPAGSPTSTEEGTSTEPSEGSAPGTSTEPSEGSAPGTSESATPESGPGTSTEPSEGSAPGTSESATPESGPGSEPATSGSETPGTSTEPSEGSAPGTSTEPSEGSAPGTSESATPESGPGTSESATPESGPGSPAGSPTSTEEGTSESATPESGPGSEPATSGSETPGTSESATPESGPGTSTEPSEGSAPGTSTEPSEGSAPGTSTEPSEGSAPGTSTEPSEGSAPGTSTEPSEGSAPGTSTEPSEGSAPGSPAGSPTSTEEGTSTEPSEGSAPGTSESATPESGPGSEPATSGSETPGTSESATPESGPGSEPATSGSETPGTSESATPESGPGTSTEPSEGSAPGTSESATPESGPGSPAGSPTSTEEGSPAGSPTSTEEGSPAGSPTSTEEGTSESATPESGPGTSTEPSEGSAPGTSESATPESGPGSEPATSGSETPGTSESATPESGPGSEPATSGSETPGTSESATPESGPGTSTEPSEGSAPGSPAGSPTSTEEGTSESATPESGPGSEPATSGSETPGTSESATPESGPGSPAGSPTSTEEGSPAGSPTSTEEGTSTEPSEGSAPGTSESATPESGPGTSESATPESGPGTSESATPESGPGSEPATSGSETPGSEPATSGSETPGSPAGSPTSTEEGTSTEPSEGSAPGTSTEPSEGSAPGSEPATSGSETPGTSESATPESGPGTSTEPSEGSAPGHHHHHH | 0.029 | 27 | 29 | 4340 |

Second part, led by results:

| EC50 [2] [µg/mL] | Binder | EC50 (pM), caspase 3/7 cytotoxicity, PBMC with HCT-116 cells 10:1 [1] [pM] | EC50 (pM), caspase 3/7 cytotoxicity, PBMC with HPAF-II cells 10:1 [1] [pM] | EC50 (pM), caspase 3/7 cytotoxicity, PBMC with MDA-MB-231 cells 10:1 [1] [pM] |
| --- | --- | --- | --- | --- |
| 0.031 | AC1684 protease-untreated anti-EpCAM×anti-CD3 ProTIA (bispecific antibody) DIQMTQSPSSLSASVGDRVTITCRSTKSLLHSNGITYLYWYQQKPGKAPKLLIYQMSNLASGVPSRFSSSGSGTDFTLTISSLQPEDFATYYCAQNLEIPRTFGQGTKVEIKGATPPETGAETESPGETTGGSAESEPPGEGQVQLVQSGPGLVQPGGSVRISCAASGYTFTNYGMNWVKQAPGKGLEWMGWINTYTGESTYADSFKGRFTFSLDTSASAAYLQINSLRAEDTAVYYCARFAIKGDYWGQGTLLTVSSGGGGSDIQMTQSPSSLSASVGDRVTITCRASQDIRNYLNWYQQKPGKAPKLLIYYTSRLESGVPSRFSGSGSGTDYTLTISSLQPEDFATYYCQQGNTLPWTFGQGTKVEIKGATPPETGAETESPGETTGGSAESEPPGEGEVQLVESGGGLVQPGGSLRLSCAASGYSFTGYTMNWVRQAPGKGLEWVALINPYKGVSTYNQKFKDRFTISVDKSKNTAYLQMNSLRAEDTAVYYCARSGYYGDSDWYFDVWGQGTLVTVSSGTAEAASASGESGRAANTEPPELGAGPGSPAGSPTSTEEGTSESATPESGPGTSTEPSEGSAPGSPAGSPTSTEEGTSTEPSEGSAPGTSTEPSEGSAPGTSESATPESGPGSEPATSGSETPGSEPATSGSETPGSPAGSPTSTEEGTSESATPESGPGTSTEPSEGSAPGTSTEPSEGSAPGSPAGSPTSTEEGTSTEPSEGSAPGTSTEPSEGSAPGTSESATPESGPGTSTEPSEGSAPGTSESATPESGPGSEPATSGSETPGTSTEPSEGSAPGTSTEPSEGSAPGTSESATPESGPGTSESATPESGPGSPAGSPTSTEEGTSESATPESGPGSEPATSGSETPGTSESATPESGPGTSTEPSEGSAPGTSTEPSEGSAPGTSTEPSEGSAPGTSTEPSEGSAPGTSTEPSEGSAPGTSTEPSEGSAPGSPAGSPTSTEEGTSTEPSEGSAPGTSESATPESGPGSEPATSGSETPGTSESATPESGPGSEPATSGSETPGTSESATPESGPGTSTEPSEGSAPGTSESATPESGPGSPAGSPTSTEEGSPAGSPTSTEEGSPAGSPTSTEEGTSESATPESGPGTSTEPSEGSAPGTSESATPESGPGSEPATSGSETPGTSESATPESGPGSEPATSGSETPGTSESATPESGPGTSTEPSEGSAPGSPAGSPTSTEEGTSESATPESGPGSEPATSGSETPGTSESATPESGPGSPAGSPTSTEEGSPAGSPTSTEEGTSTEPSEGSAPGTSESATPESGPGTSESATPESGPGTSESATPESGPGSEPATSGSETPGSEPATSGSETPGSPAGSPTSTEEGTSTEPSEGSAPGTSTEPSEGSAPGSEPATSGSETPGTSESATPESGPGTSTEPSEGSAPGHHHHHH | 32 | 24 | 12200 |
| 0.028 | AC1695 protease-untreated anti-EpCAM×anti-CD3 ProTIA (bispecific antibody) DIQMTQSPSSLSASVGDRVTITCRSTKSLLHSNGITYLYWYQQKPGKAPKLLIYQMSNLASGVPSRFSSSGSGTDFTLTISSLQPEDFATYYCAQNLEIPRTFGQGTKVEIKGATPPETGAETESPGETTGGSAESEPPGEGQVQLVQSGPGLVQPGGSVRISCAASGYTFTNYGMNWVKQAPGKGLEWMGWINTYTGESTYADSFKGRFTFSLDTSASAAYLQINSLRAEDTAVYYCARFAIKGDYWGQGTLLTVSSGGGGSDIQMTQSPSSLSASVGDRVTITCRASQDIRNYLNWYQQKPGKAPKLLIYYTSRLESGVPSRFSGSGSGTDYTLTISSLQPEDFATYYCQQGNTLPWTFGQGTKVEIKGATPPETGAETESPGETTGGSAESEPPGEGEVQLVESGGGLVQPGGSLRLSCAASGYSFTGYTMNWVRQAPGKGLEWVALINPYKGVSTYNQKFKDRFTISVDKSKNTAYLQMNSLRAEDTAVYYCARSGYYGDSDWYFDVWGQGTLVTVSSGTAEAASASGTTGRAGEAANLTPAGLTGPPGSPAGSPTSTEEGTSESATPESGPGTSTEPSEGSAPGSPAGSPTSTEEGTSTEPSEGSAPGTSTEPSEGSAPGTSESATPESGPGSEPATSGSETPGSEPATSGSETPGSPAGSPTSTEEGTSESATPESGPGTSTEPSEGSAPGTSTEPSEGSAPGSPAGSPTSTEEGTSTEPSEGSAPGTSTEPSEGSAPGTSESATPESGPGTSTEPSEGSAPGTSESATPESGPGSEPATSGSETPGTSTEPSEGSAPGTSTEPSEGSAPGTSESATPESGPGTSESATPESGPGSPAGSPTSTEEGTSESATPESGPGSEPATSGSETPGTSESATPESGPGTSTEPSEGSAPGTSTEPSEGSAPGTSTEPSEGSAPGTSTEPSEGSAPGTSTEPSEGSAPGTSTEPSEGSAPGSPAGSPTSTEEGTSTEPSEGSAPGTSESATPESGPGSEPATSGSETPGTSESATPESGPGSEPATSGSETPGTSESATPESGPGTSTEPSEGSAPGTSESATPESGPGSPAGSPTSTEEGSPAGSPTSTEEGSPAGSPTSTEEGTSESATPESGPGTSTEPSEGSAPGTSESATPESGPGSEPATSGSETPGTSESATPESGPGSEPATSGSETPGTSESATPESGPGTSTEPSEGSAPGSPAGSPTSTEEGTSESATPESGPGSEPATSGSETPGTSESATPESGPGSPAGSPTSTEEGSPAGSPTSTEEGTSTEPSEGSAPGTSESATPESGPGTSESATPESGPGTSESATPESGPGSEPATSGSETPGSEPATSGSETPGSPAGSPTSTEEGTSTEPSEGSAPGTSTEPSEGSAPGSEPATSGSETPGTSESATPESGPGTSTEPSEGSAPGHHHHHH | 53 | 18 | 3750 |
